Source: PMC10083196 (Cell Reports, 2023)

Key:
[1] = target: T1, SARS-CoV-2 spike receptor-binding domain (soluble RBD, residues 319–591) (SARS-CoV-2, UniProt P0DTC2); assay: SPR
[2] = target: T1, SARS-CoV-2 spike receptor-binding …; assay: crystal structure

B1: 2A10 IgG (antibody, V domains shown)
VH: QVQLVESGGGLIQPGGSLRLSCAASEFIVSSNYMSWVRQAPGKGLEWVSLLYSGGTTYYADSVKGRFTISRDNSKNTLFLQMNSLRAEDTAMYYCARDRGPWLHDYWGQGTLVTVSS
VL: DIVMTQSPSSLSASVGDRVTITCQASQDINKYCNWYQQKPGKAPKLLIYDASNLETGVPSRFSGSGSGTDFTFTINSLQPEDIATYYCQQYDNLPPTFGGGTKVEIK
binding result [1]: binds

B2: 2A10 Fab (Fab, V domains shown)
VH: QVQLVESGGGLIQPGGSLRLSCAASEFIVSSNYMSWVRQAPGKGLEWVSLLYSGGTTYYADSVKGRFTISRDNSKNTLFLQMNSLRAEDTAMYYCARDRGPWLHDYWGQGTLVTVSS
VL: DIVMTQSPSSLSASVGDRVTITCQASQDINKYCNWYQQKPGKAPKLLIYDASNLETGVPSRFSGSGSGTDFTFTINSLQPEDIATYYCQQYDNLPPTFGGGTKVEIK
binding result [2]: binds

B3: 1H2 IgG (antibody, V domains shown)
VH: QVQLQQSGGGLVQPGRSLRLSCAASGFTFDDYAMHWVRQAPGKGLEWVSGITWNSGTIGYADSVKGRFTISRDNAKNSLYLQMRSLRAEDTALYYCAKDSGRKLLWGREDYYMGVWGKGTTVTV
VL: SYELTQPPSVSVAPGKTARITCGGSNIGSKSVHWYQQKPGQAPVLVIYYDSDRPSGIPERFSGSNSGNTATLTISRVEAGDEADYYCQVWDSSSDHVVFGG
binding result [1]: binds
